Experiment [1] concerns the target PfOPRTase 1–218(Δ37–58)-H6 (Plasmodium falciparum) (UniProt Q8I3Y0). The experiment is described as follows: crystal structure; hanging drop, 100 mM ammonium sulfate, 30% PEG 3350, 277 K; protein at 30 mg/ml; space group P212121, eight chains (four catalytic dimers) in the asymmetric unit.
For experiment [2] the target is unchanged. Described as above. The source holds these as a separate data set.

Like-named read-outs stand apart in the source and are kept apart here.

One may read the stoichiometry N as the number of molecules, sites or subunits per partner or assembly.

Consider “PfOPRTase 1–218(Δ37–58)-H6 (from UniProt Q8I3Y0 1-218) (enzyme)”, for which the values for the stoichiometry N in experiment [1] and in experiment [2] were 2 and 4, respectively.

For the origin of these results see paper PMC4427171.
